Test results taken from CN114591431A (MEISWEI SHANGHAI BIOTECHNOLOGY CO LTD, dated 2022).
Numbering of substitutions follows the chain as printed.

T1: 重组人GAS6 his 蛋白(Novoprotein，Cat#C01W) (human, UniProt Q14393 31-678, limits assumed)
T1 construct: Bought protein; not shown: His tag
T1 sequence (looked up): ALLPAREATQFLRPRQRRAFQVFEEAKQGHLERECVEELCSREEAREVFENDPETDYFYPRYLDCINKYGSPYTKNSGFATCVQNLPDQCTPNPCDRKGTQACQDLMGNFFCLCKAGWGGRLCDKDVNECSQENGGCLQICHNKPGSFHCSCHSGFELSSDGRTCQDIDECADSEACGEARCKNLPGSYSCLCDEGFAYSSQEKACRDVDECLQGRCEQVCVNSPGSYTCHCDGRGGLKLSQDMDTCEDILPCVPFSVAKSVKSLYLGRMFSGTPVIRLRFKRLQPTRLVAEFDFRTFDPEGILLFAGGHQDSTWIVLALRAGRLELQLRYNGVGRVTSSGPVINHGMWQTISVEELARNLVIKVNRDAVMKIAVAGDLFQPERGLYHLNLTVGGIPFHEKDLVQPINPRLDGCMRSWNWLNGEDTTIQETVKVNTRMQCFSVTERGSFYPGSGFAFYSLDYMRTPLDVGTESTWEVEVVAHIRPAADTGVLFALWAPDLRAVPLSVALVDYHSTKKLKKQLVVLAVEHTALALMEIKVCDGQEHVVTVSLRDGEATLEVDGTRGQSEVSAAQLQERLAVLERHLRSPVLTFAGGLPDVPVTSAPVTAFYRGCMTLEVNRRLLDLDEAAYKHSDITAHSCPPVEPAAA

T2: 鼠GAS6 his蛋白(Sino Biological，Cat#58026-M08H) (mouse, UniProt Q61592 28-674)
T2 construct: Bought protein; also called 小鼠 GAS6; not shown: His tag
T2 sequence (looked up): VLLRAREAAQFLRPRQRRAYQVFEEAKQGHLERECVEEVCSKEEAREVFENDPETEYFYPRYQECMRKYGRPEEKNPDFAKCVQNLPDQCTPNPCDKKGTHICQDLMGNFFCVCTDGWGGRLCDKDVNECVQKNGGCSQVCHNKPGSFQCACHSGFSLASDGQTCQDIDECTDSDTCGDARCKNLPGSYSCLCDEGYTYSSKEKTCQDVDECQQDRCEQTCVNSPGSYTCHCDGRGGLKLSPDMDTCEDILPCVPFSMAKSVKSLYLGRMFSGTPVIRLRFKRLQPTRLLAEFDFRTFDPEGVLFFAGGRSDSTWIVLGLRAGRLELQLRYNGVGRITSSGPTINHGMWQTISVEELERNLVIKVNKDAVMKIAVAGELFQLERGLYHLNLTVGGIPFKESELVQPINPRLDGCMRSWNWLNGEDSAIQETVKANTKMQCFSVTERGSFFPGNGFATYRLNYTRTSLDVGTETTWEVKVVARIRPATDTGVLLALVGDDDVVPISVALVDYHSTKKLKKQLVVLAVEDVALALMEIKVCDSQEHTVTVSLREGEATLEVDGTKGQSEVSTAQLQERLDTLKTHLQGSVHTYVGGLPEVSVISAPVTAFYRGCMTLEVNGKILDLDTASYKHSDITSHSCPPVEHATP

T3: 重组人Protein S his 蛋白(R&D，Cat# 9489-PS) (human, UniProt P07225 42-676, limits assumed)
T3 construct: Bought protein; not shown: His tag
T3 sequence (looked up): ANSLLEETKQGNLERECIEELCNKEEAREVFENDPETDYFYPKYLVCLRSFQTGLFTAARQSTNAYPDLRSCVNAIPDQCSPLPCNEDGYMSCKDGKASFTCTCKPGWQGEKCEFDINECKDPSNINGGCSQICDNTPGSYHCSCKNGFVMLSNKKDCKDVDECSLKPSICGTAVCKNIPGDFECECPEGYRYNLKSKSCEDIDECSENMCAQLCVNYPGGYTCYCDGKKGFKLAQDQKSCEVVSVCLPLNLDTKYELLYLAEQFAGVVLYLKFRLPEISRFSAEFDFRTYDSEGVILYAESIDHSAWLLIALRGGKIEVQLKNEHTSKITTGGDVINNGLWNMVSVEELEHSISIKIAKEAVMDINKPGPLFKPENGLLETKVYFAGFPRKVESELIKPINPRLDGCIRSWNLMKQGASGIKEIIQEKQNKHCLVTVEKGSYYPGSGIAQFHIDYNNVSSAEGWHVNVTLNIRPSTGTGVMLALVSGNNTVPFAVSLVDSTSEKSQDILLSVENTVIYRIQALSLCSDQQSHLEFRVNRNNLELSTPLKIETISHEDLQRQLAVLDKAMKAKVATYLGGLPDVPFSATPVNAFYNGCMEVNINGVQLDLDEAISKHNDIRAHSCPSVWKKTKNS

B1: ch18I16C6 (antibody, human IgG1, kappa, V domains shown)
VH: EVKIEESGGGLVKPGGSLKLSCAASGFTFSSYAMSWFRQTPEKRLEWVASISSGGNSYYPDSVKGRFTISRDNARNILYLQMSSLRSEDTAMYYCSRTPDYWGQGTTVTVSS
VL: DVVMTQSPSSMCASLGERVTITCKASQDINTYLSWFQQKPGKSPKTLIYRANRLVDGVPSRFSGSGSGQDYSLTISSLEYEDMGIYYCLQYDEFPFTFGSGTKLEIKR
notes: Human-mouse chimeric antibody, hIgG1 (G1m3) / human kappa (Km3), made in HEK293; also called ch18I16C6-IgG
B2: ch2D3C6 (antibody, human IgG1, kappa, V domains shown)
VH: DIQLQESGPGLVKPSQSLSLTCSVTGYSITNGYYWNWIRQFPGNKLEWMGYISYDGTNNYNPSLKNRISITRDTSKNQFFLKLNSVTTEDTATYYCARRALWYYAMDYWGQGTSVTVSS
VL: DIVMTQSPASLAVSLGQRATISCKASQSVDYDGESYMNWYQQKPGQPPKLLIYVASNLESGIPARFSGSGSGTDFTLNIHPVEEEDAATYYCQQSDEDPYTFGGGTKLEIKR
notes: Human-mouse chimeric antibody, mouse VH/VL cloned into pTT5_hIgG1.G1m3 / pTT5_hKappa.Km3, made in HEK293; also called ch2D3C6-IgG
B3: ch11B11D12 (antibody, human IgG1, kappa, V domains shown)
VH: QVQLQQSGAELAKPGASVKMSCKASGYTFTRYWIHWVKQRPGQGLEWIGYIIPSTGYTEYSQRFKDKATLTADKSSNTAYMQLSSLTSEDSAVYYCTRYYRYAKYVMDYWGQGTTVTVSS
VL: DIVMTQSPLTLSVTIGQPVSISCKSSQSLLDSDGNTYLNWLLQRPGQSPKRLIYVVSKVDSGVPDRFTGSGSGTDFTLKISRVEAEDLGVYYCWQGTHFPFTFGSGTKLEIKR
notes: Human-mouse chimeric antibody, hIgG1 (G1m3) / human kappa (Km3), made in HEK293; also called ch11B11D12-IgG
B4: ch2O18G6 (antibody, human IgG1, kappa, V domains shown)
VH: QVQLQQSGPELVKPGASVKISCKTSGNTFTEYIMHWVKQSHGKSLEWIGGINPKNGGTSYNQKFKGKATLTVDKSSRTAYMELRSLTSEDSAVYYCARVRIPPYVYYAMDYWGQGTTVTVSS
VL: DVVVTQTPLSLPVSLGDQASISCRSSQSIVHSNGNTYLEWYLQKPGQSPKLLIYKVSNRFSGVPDRFSGSGSGTDFTLKISRVEAEDLGVYYCFQGSHVPYTFGGGTKLEIKR
notes: Human-mouse chimeric antibody, hIgG1 (G1m3) / human kappa (Km3), made in HEK293; also called ch2O18G6-IgG
B5: ch15G5E5 (antibody, human IgG1, kappa, V domains shown)
VH: EVQLQQSGPELVKPGASVKMSCKASGYTFTDDYMKWVKQSHGKSLEWIGDINPNNGGTIYNQKFKGKAILTVDKSSSTAYMQLNSLTSEDSAVYYCARRGRGSWGQGTTVTVSS
VL: B4 VL with V3L, V4M, H31Y, K55R, V90I, Y101L, G105A, I111L
notes: Human-mouse chimeric antibody, hIgG1 (G1m3) / human kappa (Km3), made in HEK293; also called ch15G5E5-IgG

Target: T1, 重组人GAS6 his 蛋白(Novoprotein，Cat#C01W)
Assay: ELISA, coated human GAS6 his 0.5 ug/ml

Going from B1 to B2, the EC50 rises from 0.11 nM to 0.19 nM (1.7-fold).

B3 and B4 are within 1.5-fold of each other in EC50: 0.18 nM for the first, 0.21 nM for the second.

For B5, the EC50 was 0.16 nM.

Target: T2, 鼠GAS6 his蛋白(Sino …)
Assay: ELISA, coated mouse GAS6 his 0.5 ug/ml

First: B1
Second: B2
The EC50 of the first is 14-fold lower: 0.1 nM for the first, 1.42 nM for the second. The first is the more potent here.

B3 and B4 are within 1.5-fold of each other in EC50: 0.15 nM for the first, 0.22 nM for the second.

With B5 the EC50 was 4.94 nM.

Target: T3, 重组人Protein S his 蛋白(R&D，Cat# 9489-PS)
Assay: ELISA, coated human Protein S his 1 ug/ml

Compared with B1, B4 is 3.1-fold higher in EC50: 0.008 nM for the first, 0.025 nM for the second. The first is the more potent here.

For B5, the EC50 was 0.2 nM.
